Target: Protein A (on chromatography support) (UniProt P38507)
Assay: Protein A column, linear pH gradient

| Substance | elution pH from Protein A column |
| --- | --- |
| IgG1 homodimer (unmodified CH3) (antibody) | 3.7 pH |
| IgG1 heterodimer with two IgG1 heavy chains identical but for an H435R/Y436F dipeptide modification in one CH3 domain (from UniProt P01857 1-330) (antibody) | 3.9 pH |

— US20190031713A1
